The target of experiment [1] is human B7-H2, full length, expressed on cells (B7-H2+293T cells) (human) (UniProt O75144). As to the kind of experiment: cell-based or functional assay.
The next experiment has as its target T1, PD-1Ig (Mus musculus, UniProt Q02242).
T1 construct: Ig fusion protein purchased from R&D systems; also called mouse PD-1Ig fusion protein
T1 sequence (fusion protein, looked up): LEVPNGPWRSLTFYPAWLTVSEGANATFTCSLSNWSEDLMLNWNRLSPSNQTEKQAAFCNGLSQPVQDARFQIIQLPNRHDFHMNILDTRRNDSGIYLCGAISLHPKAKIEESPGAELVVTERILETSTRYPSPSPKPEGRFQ
The experiment is described as follows: CDS well image, 293T cells transfected with the mouse gene, stained with the mouse fusion protein.

For a further experiment, the target named is T2, B7-H2Ig (Mus musculus, UniProt Q9JHJ8).
T2 construct: Ig fusion protein purchased from R&D systems; also called mouse B7-H2Ig fusion protein
T2 sequence (fusion protein, looked up): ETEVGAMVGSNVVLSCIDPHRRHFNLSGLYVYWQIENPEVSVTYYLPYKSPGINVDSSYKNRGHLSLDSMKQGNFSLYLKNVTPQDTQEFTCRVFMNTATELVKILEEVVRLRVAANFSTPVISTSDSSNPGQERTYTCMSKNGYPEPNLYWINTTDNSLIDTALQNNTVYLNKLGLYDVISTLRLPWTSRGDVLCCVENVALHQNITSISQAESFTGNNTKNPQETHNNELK
The description is as above.

A further experiment has as its target T3, B7-H1Ig (Mus musculus, UniProt Q9EP73).
T3 construct: Ig fusion protein purchased from R&D systems; also called mouse B7-H1Ig fusion protein
The description is as above.

A further experiment deals with T4, ICOSIg (Mus musculus, UniProt Q9WVS0).
T4 construct: Ig fusion protein purchased from R&D systems; also called mouse ICOSIg fusion protein
T4 sequence (fusion protein, looked up): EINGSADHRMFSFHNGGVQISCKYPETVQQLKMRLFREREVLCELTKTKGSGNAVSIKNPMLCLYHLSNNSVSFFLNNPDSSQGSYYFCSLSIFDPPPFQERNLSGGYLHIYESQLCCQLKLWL
The experiment is described as above.

Experiment [2] concerns the target T5, mouse CTLA-4Ig fusion protein (mouse, UniProt P09793 36-162).
T5 construct: Bought from R&D Systems; Ig (Fc) part not given
Described as above.

Another experiment addresses T6, B7-DCIg (Mus musculus, UniProt Q9WUL5).
T6 construct: Ig fusion protein purchased from R&D systems; also called mouse B7-DCIg fusion protein
T6 sequence (fusion protein, looked up): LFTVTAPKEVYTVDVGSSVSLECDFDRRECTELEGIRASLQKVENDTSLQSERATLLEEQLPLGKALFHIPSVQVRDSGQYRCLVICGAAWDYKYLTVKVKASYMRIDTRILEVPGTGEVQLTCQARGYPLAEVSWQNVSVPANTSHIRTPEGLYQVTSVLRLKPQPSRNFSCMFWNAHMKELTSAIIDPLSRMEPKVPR
The experiment is described as above.

Experiment [3] deals with T7, mouse CD28Ig fusion protein (mouse, UniProt P31041 20-149).
T7 construct: Bought from R&D Systems; Ig (Fc) part not given
T7 sequence (looked up): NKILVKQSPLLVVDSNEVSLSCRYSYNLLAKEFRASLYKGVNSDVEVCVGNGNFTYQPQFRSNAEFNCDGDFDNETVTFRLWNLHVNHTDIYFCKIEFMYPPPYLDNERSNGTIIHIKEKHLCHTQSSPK
The description is as above.

Experiment [4] concerns the target T8, human B7-H1 expressed on 293T cells (human, UniProt Q9NZQ7 19-290).
T8 construct: whole, on cells
As to the kind of experiment: CDS well image, 293T cells transfected with the human gene, stained with the human fusion protein.

For experiment [5], the target named is T9, human B7-2 (CD86, B70) expressed on 293T cells (human, UniProt P42081 24-329).
T9 construct: whole, on cells
T9 sequence (looked up): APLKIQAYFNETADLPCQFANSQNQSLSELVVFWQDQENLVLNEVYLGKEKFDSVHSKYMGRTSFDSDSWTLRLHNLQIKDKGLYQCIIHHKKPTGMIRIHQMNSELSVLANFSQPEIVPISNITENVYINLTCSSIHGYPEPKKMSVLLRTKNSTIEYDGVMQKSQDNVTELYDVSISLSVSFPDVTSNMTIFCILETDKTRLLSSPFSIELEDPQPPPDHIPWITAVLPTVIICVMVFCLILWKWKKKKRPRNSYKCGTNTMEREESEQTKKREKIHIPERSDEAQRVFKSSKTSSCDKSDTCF
Described as above.

Experiment [6] has as its target T10, human B7-H2, full length, expressed on cells (B7-H2+293T cells) (human, UniProt O75144 19-302).
T10 construct: This id also stands for endogenous B7-H2 on monocyte-derived dendritic cells in the functional rows; also called ICOSL; ICOSLG
T10 sequence: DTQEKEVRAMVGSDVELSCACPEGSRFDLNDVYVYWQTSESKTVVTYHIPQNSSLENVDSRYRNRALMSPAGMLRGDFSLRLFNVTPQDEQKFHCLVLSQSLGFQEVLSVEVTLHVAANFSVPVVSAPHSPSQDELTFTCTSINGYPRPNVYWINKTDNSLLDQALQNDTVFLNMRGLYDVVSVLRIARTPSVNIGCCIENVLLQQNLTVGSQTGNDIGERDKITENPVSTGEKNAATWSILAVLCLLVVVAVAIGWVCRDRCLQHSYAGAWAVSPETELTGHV
The experiment is described as above.

In experiment [7] the target is T11, human B7-1 (CD80) expressed on 293T cells (human, UniProt P33681 35-288).
T11 construct: whole, on cells
T11 sequence (looked up): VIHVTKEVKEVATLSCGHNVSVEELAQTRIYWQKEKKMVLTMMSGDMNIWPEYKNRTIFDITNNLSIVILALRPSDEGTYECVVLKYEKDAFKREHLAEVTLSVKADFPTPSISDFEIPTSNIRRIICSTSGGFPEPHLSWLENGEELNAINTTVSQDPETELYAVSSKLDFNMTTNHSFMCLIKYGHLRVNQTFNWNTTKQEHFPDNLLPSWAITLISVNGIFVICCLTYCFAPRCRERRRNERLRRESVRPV
The experiment is described as above.

Experiment [8] addresses T12, human B7-DC expressed on 293T cells (human, UniProt Q9BQ51 20-273).
T12 construct: whole, on cells
T12 sequence (looked up): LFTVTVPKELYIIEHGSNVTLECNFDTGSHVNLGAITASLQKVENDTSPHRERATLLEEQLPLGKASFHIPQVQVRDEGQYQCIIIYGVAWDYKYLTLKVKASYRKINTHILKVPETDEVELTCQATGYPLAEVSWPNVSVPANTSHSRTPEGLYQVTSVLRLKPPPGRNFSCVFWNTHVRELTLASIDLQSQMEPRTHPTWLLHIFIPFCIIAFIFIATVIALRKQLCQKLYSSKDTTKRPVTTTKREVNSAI
Described as above.

Experiment [9] has as its target T13, human CD28, full length, expressed on cells (CD28+293T cells) (human, UniProt P10747 19-220).
T13 construct: This id also stands for CD28 on purified human T cells in the functional rows; also called CD28+ cells
The description is as above.

T3 sequence (Q9EP73 19-238 limits assumed): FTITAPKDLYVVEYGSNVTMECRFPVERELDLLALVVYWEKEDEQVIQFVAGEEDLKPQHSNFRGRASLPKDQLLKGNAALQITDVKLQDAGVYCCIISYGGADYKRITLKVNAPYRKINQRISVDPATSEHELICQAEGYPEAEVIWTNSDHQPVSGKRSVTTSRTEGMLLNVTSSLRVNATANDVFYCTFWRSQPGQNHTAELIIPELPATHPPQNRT
T13 sequence (P10747 19-220): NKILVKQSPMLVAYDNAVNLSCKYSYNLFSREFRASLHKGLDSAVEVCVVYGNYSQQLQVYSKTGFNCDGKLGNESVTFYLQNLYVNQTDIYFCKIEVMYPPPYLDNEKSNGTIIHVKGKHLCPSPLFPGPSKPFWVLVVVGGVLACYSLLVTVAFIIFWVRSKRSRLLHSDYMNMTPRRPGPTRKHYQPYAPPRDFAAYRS
T8 sequence (Q9NZQ7 19-290): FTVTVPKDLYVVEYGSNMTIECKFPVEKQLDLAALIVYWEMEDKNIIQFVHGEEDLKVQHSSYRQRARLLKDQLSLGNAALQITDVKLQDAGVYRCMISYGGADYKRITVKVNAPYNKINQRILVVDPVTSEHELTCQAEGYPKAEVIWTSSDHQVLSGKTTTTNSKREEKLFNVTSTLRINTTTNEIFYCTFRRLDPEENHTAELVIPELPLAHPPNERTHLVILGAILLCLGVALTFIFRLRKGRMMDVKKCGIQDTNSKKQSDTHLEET

For the molecule “mouse anti-human B7-H2 mAb 9F.8A4 (antibody)”, in experiment [1], the tetanus toxoid-elicited IFNγ production of memory T cells; inhibition is above 90% and the tetanus toxoid-elicited proliferation of memory T cells; inhibition was above 50%.

B1: B7-2 (ligand)
chain: VSVETQAYFNGTAYLPCPFTKAQNISLSELVVFWQDQQKLVLYEHYLGTEKLDSVNAKYLGRTSFDRNNWTLRLHNVQIKDMGSYDCFIQKKPPTGSIILQQTLTELSVIANFSEPEIKLAQNVTGNSGINLTCTSKQGHPKPKKMYFLITNSTNEYGDNMQISQDNVTELFSISNSLSLSFPDGVWHMTVVCVLETESMKISSKPLNFTQEFPSPQTYWKEITASVTVALLLVMLLIIVCHKKPNQPSRPSNTASKLERDSNADRETINLKELEPQIASAKPNAE
On to B1, for which the binding result is on record as “no binding” with PD-1Ig; “no binding” with B7-H2Ig; “no binding” with B7-H1Ig; “no binding” in the experiment with ICOSIg; “binds” in [2]; “no binding” in the experiment with B7-DCIg. The binding result in experiment [3] was “binds”.

B2: B7-DC (ligand, Mus musculus, UniProt Q9WUL5 20-247, looked up)
membrane protein: LFTVTAPKEVYTVDVGSSVSLECDFDRRECTELEGIRASLQKVENDTSLQSERATLLEEQLPLGKALFHIPSVQVRDSGQYRCLVICGAAWDYKYLTVKVKASYMRIDTRILEVPGTGEVQLTCQARGYPLAEVSWQNVSVPANTSHIRTPEGLYQVTSVLRLKPQPSRNFSCMFWNAHMKELTSAIIDPLSRMEPKVPRTWPLHVFIPACTIALIFLAIVIIQRKRI
For B2, the binding result with B7-H2Ig is recorded as “no binding”.

B3: B7-1 (ligand)
chain: VDEQLSKSVKDKVLLPCRYNSPHEDESEDRIYWQKHDKVVLSVIAGKLKVWPEYKNRTLYDNTTYSLIILGLVLSDRGTYSCVVQKKERGTYEVKHLALVKLSIKADFSTPNITESGNPSADTKRITCFASGGFPKPRFSWLENGRELPGINTTISQDPESELYTISSQLDFNTTRNHTIKCLIKYGDAHVSEDFTWEKPPEDPPDSKNTLVLFGAGFGAVITVVVIVVIIKCFCKHRSCFRRNEASRETNNSLTFGPEEALAEQTVFL
As to B3, the binding result is “no binding” with PD-1Ig; “no binding” in the experiment with B7-H2Ig; “binds” with B7-H1Ig; “no binding” in the experiment with ICOSIg; “binds” in experiment [2]; “no binding” in the experiment with B7-DCIg. Moreover, the binding result in experiment [3] is given as “binds”.

B4: B7-DCIg (Fc fusion, Homo sapiens, UniProt Q9BQ51 20-219, looked up)
fusion protein: LFTVTVPKELYIIEHGSNVTLECNFDTGSHVNLGAITASLQKVENDTSPHRERATLLEEQLPLGKASFHIPQVQVRDEGQYQCIIIYGVAWDYKYLTLKVKASYRKINTHILKVPETDEVELTCQATGYPLAEVSWPNVSVPANTSHSRTPEGLYQVTSVLRLKPPPGRNFSCVFWNTHVRELTLASIDLQSQMEPRTHP
notes: Ig fusion protein purchased from R&D systems; also called human B7-DCIg fusion protein
Consider B4, for which the binding result in experiment [4], in experiment [5], in experiment [6], in experiment [7], in experiment [8] and in experiment [9] was “no binding” each time.

These data come from patent US20120219559A1 (Johns Hopkins, published 2012).
